B1: LINE1-full (parent)
chain: UACGUAGGUGGUUUUCCCCUGAUAGUGCUAAGGGGGCCUGGAAGUUUGGACUGGGCAGAGCUCAACACAGCGUGGCAAAGUGGCUGUGGCUAGACUGCCUCUCUGGAUUCCUCGUCACUCAGCAGGGCAUCUCUGAGAGAAAUGCC

Variants of: B1
Assay: self-cleavage, relative activity (ratio to wild type); higher = more cleavage; in vitro, sequencing; the parent is a self-cleaving ribozyme

Variant | self-cleavage
A67U C131U | 0.08
A2G U45C | 1.19
A67G C131G | 0
A78U A141G | 1.96
U14C U132A | 0.87
U14C U132C | 1.43
A22G U143C | 0.97
A78G U87C | 0.15
A65G A67G | 0.09
C18U A30U | 0.14
U5C U9C | 1.28
U85C C146A | 0.48
U26A G126A | 0.82
C17A A22G | 2.19
G75A | 1.11
G58A A117C | 0.1
U26G A57G | 0.82
G10A A117U | 1.21
A42G C113U | 1.12
A30G C56U | 0.84
A94G A138G | 0.19
U52A U104A | 2.03
G40A A124G | 0.52
U15A U85G | 0.28

Variant | self-cleavage
C16U A92G | 0.2
U47C G125U | 1.39
A57G U143C | 0.81
U109C A140U | 1.15
G35U U143A | 1.56
G88A U100A | 0.07
C120U | 1.37
U87G A107G | 0
C71A G122A | 0.12
U47C U100C | 2.49
U45C U104A | 1.43
U96G | 0.1
A64C A65U | 0.06
A24U U62A | 0.03
U52A A64U | 0.46
U102C C120U | 1.71
A30G G75A | 1.05
G54A A121U | 0.85
U39C A79U | 1.2
U9A A121U | 2.38
G27U C61U | 0.06
U81C A124G | 1.25
G80A U100C | 1.42
U29C A142G | 1.38

Variant | self-cleavage
U46C A136G | 1.21
C28U U81A | 1.44
C98U C123U | 0.35
U9A G36A | 1.09
G21A U109A | 0.64
C66U | 0.05
A6G U39A | 0.6
U47A A79U | 1.64
A78G U130A | 1.1
U52C U108C | 1.68
U1C A65G | 0.07
U12G A57U | 0.17
U91C U104C | 1.15
G97A G114A | 0.15
U73C A94C | 0.32
U15A C19A | 0.79
U14C A67C | 0.13
U39A U102A | 1.62
U62C U115A | 0.04
A22G A140G | 0.8
G8A U15C | 1.97
A59G U143A | 0.08
A79U A121C | 1.64
A65G U102A | 0.01

Variant | self-cleavage
C3U G58U | 0
A43G A94U | 0.16
G34A A141G | 1.41
U14C C111A | 1.2
C18A U45A | 1.06
U115C A138U | 1.64
A67G A140G | 0.42
G55A A141G | 0.11
U73C C90G | 0.01
U39C A121C | 1.37
A30G U46C | 1.06
A69G C90U | 0.07
A117G G139U | 2.05
U14A U26C | 1.95
G33C U104A | 1.27
U5C G36A | 0.4
G32A U85A | 0.14
U1C U29C | 1.1
U26G G122A | 1.81
U62C G83U | 0.03
U47C A141G | 1.51
C37U U52G | 0.88
A24C U134G | 1.02
G48A A79G | 1.43

Variant | self-cleavage
A78C A121G | 2.59
U29C G125A | 0.94
U5A A140U | 1.09
G44A A79U | 1.89
A50G C90G | 0.06
U85C A117C | 0.25
G114A A124G | 1.5
U26C G33U | 1.01
G11A U112C | 1.37
U108C G126A | 2.16
G89U A117G | 0
U1C U130A | 0.83
U26A U112C | 1.18
U52A A142G | 1.46
G10A G48U | 0.89
A67C U134C | 0.09
A69G A77C | 0.61
U9A G125U | 0.15
G4A U73A | 0.97
A57U U102C | 0.13
A43C A92G | 0.18
A69C C76U | 0.08
U23C U104A | 1.14
U85A U91A | 0.11

Variant | self-cleavage
U20G G41U | 0.84
G125U A136G | 0.79
G53A U143C | 1.59
C37G U45A | 0.85
G40A A79U | 1.13
A42G A94U | 0.21
U47C G75A | 1.95
G86A U91C | 0.07
G74A U100A | 0.7
A129G C145G | 1.65
G32C G60U | 0.02
U15A U109A | 0.47
A2G G4U | 0.4
C51U A142C | 1.25
U20G U91A | 0.47
A30U A77U | 0.98
G97A A136U | 0.11
U46A G114C | 1.56
U73A U87A | 0.07
U52C G137A | 0.89
G35U A124U | 1.41
U39C A57U | 0.06
G89U | 0.01
G60A A142G | 0.04

Variant | self-cleavage
A22G U23C | 0.63
U14A A124G | 0.62
C38U U46A | 1.28
U20A A78U | 1.34
A124G A141G | 1.39
A59G C63U | 0.05
A24U A121G | 1.08
U52C C146U | 2.19
U46C A65G | 0.06
U46C A65U | 0.24
G139A | 0.89
U12G A22G | 1.04
A50U | 1
A31U U143A | 0.78
A79G C128A | 0.46
G4A U14C | 0.59
U9C A129C | 1.24
U52C A129U | 1.61
A43G C123U | 1.21
U130C C131U | 1.28
A6U G97A | 0.12
C71A G83U | 0.58
U26C A121G | 1.64

— the RNAGym collection of RNA variant scans (doi:10.7554/elife.90254)
